Columns and labels:
[1] = biological target: H_N70 (SEQ ID NO: 8), microbial HemG protoporphyrinogen oxidase (Pantoea phytostimulans, UniProt A0ACH3N612); assay: PPO enzyme assay (bacterial extract); settings: read-out: S-3100 IC50; 3 μM protogen; pH 7.4, 37° C.
[2] = biological target: H_N110 (SEQ ID NO: 10), microbial HemG protoporphyrinogen oxidase; assay: PPO enzyme assay (bacterial extract); settings: read-out: S-3100 IC50; 3 μM protogen; pH 7.4, 37° C.
[3] = tested on: soybean plantlets; assay: High-throughput soybean screening for herbicide tolerance (plantlets); format: in vivo, soybean (A3555); parameters: key: 0 for poor tolerance, high damage, low green coloration; 1 for some tolerance, average damage, moderate green coloration; 2 for good tolerance, low damage, high green coloration; settings: S-3100 spray five weeks post-transformation, scored day four
Method in brief: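 Soybean embryo explants (A3555) transformed via A. tumefaciens; at five weeks, plantlets sprayed with two passes of S-3100 (0.3 g in 5.0 mL crop oil concentrate plus 495 mL water). After four days with at least 15 h light daily, green coloration versus damage scored 0 (poor), 1 (some) or 2 (good tolerance).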

[4] = tested on: R0 soybean plants; assay: R0 transgenic soybean herbicide tolerance at eleven weeks; format: in vivo; settings: R0 plants sprayed with S-3100 at eleven weeks, rated seven days after treatment
Procedure: The plantlets in the non-sprayed containers corresponding to constructs having a score of 2 were transplanted at approximately 7 weeks post transformation and grown as R0 plants using standard methods known in the art. Plantlets corresponding to non-tolerant scores of 0 and 1 were also grown to serve as negative controls. The R0 plants were grown in a greenhouse under long-day nursery conditions (18 hr light at 80° F. then 6 hr dark at 74° F.) for approximately four weeks. At eleven weeks, the R0 plants were sprayed with two passes of the same herbicide solution (0.3 g of 5-3100) described above. Herbicide injury ratings were collected seven days after treatment.
The results of the herbicide tolerance application at eleven weeks to the R0 plants confirmed the low percent injury rating scores observed in the high-throughput screen at five weeks. Any injury rating of 30% or above was equivalent to non-transgenic soybean injury ratings. A few of the constructs stood out as providing very good tolerance to the herbicide application. […] Data are provided in Table 10, where n.d. indicates the analysis was not conducted.

Sequence of H_N70 (SEQ ID NO: 8), microbial HemG protoporphyrinogen oxidase (A0ACH3N612 entry or part of it): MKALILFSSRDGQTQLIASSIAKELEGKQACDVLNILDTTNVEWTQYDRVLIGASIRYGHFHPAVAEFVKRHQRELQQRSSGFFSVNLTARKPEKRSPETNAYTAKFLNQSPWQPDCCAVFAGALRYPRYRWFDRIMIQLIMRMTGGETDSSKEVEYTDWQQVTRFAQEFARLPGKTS

CCOC(=O)COc1ncccc1Oc1cc(-n2c(=O)cc(C(F)(F)F)n(C)c2=O)c(F)cc1Cl [S-3100, ethyl [3-2-chloro-4-fluoro-5-(1-methyl-6-trifluoromethyl-2,4-dioxo-1,2,3,4-tetrahydropyrimidin-3-yl)phenoxy]-2-pyridyloxylacetate]
IC50 [1]: > 100 µM | IC50 [2]: > 100 µM

B1: H_N90: microbial HemG protoporphyrinogen oxidase, SEQ ID NO:1 (SEQ ID NO:11 lacking start methionine; variants 18, 19) (protein, listed as Enterobacter cloacae)
chain: MKALVLYSTRDGQTHAIASYIASCMKEKAECDVIDLTHGEHVNLTQYDQVLIGASIRYGHFNAVLDKFIKRNVDQLNNMPSAFFCVNLTARKPEKRTPQTNPYVRKFLLATPWQPALCGVFAGALRYPRYRWIDKVMIQLIMRMTGGETDTSKEVEYTDWEQVKKFAEDFAKLSYKKAL
coloration score ([3]; TP9): 1 | coloration score ([3]; TP10): 2 | coloration score ([3]; TP11): 2 | coloration score ([3]; TP12): 2 | coloration score ([3]; TP13): 2 | coloration score ([3]; TP14): 2 | coloration score ([3]; TP15): 2 | coloration score ([3]; TP16): 1 | coloration score ([3]; TP17): 2 | coloration score ([3]; TP18): 2 | coloration score ([3]; TP19): 1 | coloration score ([3]; TP20): 2 | coloration score ([3]; TP21): 1 | coloration score ([3]; TP22): 2 | coloration score ([3]; TP23): 1 | coloration score ([3]; TP24): 1 | coloration score ([3]; TP25): 1 | coloration score ([3]; TP26): 0 | coloration score ([3]; TP27): 1 | coloration score ([3]; TP28): 2 | coloration score ([3]; TP29): 1 | coloration score ([3]; TP30): 1 | coloration score ([3]; TP31): 0 | coloration score ([3]; TP32): 0 | coloration score ([3]; TP33): 2 | coloration score ([3]; TP34): 2 | coloration score ([3]; TP35): 1 | coloration score ([3]; TP36): 2 | percent injury score ([4]; TP1): 3% | percent injury score ([4]; TP9): 30% | percent injury score ([4]; TP10): 30% | percent injury score ([4]; TP11): 30% | percent injury score ([4]; TP12): 30% | percent injury score ([4]; TP13): 15% | percent injury score ([4]; TP14): 25% | percent injury score ([4]; TP15): 35% | percent injury score ([4]; TP16): 35% | percent injury score ([4]; TP17): 15% | percent injury score ([4]; TP18): 30% | percent injury score ([4]; TP20): 5% | percent injury score ([4]; TP21): 25% | percent injury score ([4]; TP22): 30% | percent injury score ([4]; TP23): 30% | percent injury score ([4]; TP26): 40% | percent injury score ([4]; TP27): 35% | percent injury score ([4]; TP28): 30% | percent injury score ([4]; TP32): 50% | percent injury score ([4]; TP33): 25% | percent injury score ([4]; TP34): 35% | percent injury score ([4]; TP35): 15% | percent injury score ([4]; TP36): 15%
